How the values were obtained:
[1] = target: src_chick SRC (UniProt P00523)
[2] = target: src_chick SRC (UniProt P00523); remark: listed apart in the source
[3] = target: crk_human CRK (UniProt P46108)
Sequence of crk_human CRK (P46108 whole entry): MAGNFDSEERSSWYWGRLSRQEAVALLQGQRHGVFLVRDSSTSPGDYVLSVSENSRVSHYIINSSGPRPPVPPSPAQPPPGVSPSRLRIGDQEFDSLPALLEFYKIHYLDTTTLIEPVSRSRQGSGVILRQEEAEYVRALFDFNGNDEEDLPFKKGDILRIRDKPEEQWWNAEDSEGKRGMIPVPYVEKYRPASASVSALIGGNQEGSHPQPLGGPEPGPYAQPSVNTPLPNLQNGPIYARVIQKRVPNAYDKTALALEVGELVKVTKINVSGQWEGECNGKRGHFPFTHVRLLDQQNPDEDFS

Sequence of Arf-GAP with SH3 domain, ANK repeat and PH domain-containing protein 1 (Mus musculus), Q9QWY8-1 R811A (Q9QWY8 whole entry R811A, the tested form may be a part): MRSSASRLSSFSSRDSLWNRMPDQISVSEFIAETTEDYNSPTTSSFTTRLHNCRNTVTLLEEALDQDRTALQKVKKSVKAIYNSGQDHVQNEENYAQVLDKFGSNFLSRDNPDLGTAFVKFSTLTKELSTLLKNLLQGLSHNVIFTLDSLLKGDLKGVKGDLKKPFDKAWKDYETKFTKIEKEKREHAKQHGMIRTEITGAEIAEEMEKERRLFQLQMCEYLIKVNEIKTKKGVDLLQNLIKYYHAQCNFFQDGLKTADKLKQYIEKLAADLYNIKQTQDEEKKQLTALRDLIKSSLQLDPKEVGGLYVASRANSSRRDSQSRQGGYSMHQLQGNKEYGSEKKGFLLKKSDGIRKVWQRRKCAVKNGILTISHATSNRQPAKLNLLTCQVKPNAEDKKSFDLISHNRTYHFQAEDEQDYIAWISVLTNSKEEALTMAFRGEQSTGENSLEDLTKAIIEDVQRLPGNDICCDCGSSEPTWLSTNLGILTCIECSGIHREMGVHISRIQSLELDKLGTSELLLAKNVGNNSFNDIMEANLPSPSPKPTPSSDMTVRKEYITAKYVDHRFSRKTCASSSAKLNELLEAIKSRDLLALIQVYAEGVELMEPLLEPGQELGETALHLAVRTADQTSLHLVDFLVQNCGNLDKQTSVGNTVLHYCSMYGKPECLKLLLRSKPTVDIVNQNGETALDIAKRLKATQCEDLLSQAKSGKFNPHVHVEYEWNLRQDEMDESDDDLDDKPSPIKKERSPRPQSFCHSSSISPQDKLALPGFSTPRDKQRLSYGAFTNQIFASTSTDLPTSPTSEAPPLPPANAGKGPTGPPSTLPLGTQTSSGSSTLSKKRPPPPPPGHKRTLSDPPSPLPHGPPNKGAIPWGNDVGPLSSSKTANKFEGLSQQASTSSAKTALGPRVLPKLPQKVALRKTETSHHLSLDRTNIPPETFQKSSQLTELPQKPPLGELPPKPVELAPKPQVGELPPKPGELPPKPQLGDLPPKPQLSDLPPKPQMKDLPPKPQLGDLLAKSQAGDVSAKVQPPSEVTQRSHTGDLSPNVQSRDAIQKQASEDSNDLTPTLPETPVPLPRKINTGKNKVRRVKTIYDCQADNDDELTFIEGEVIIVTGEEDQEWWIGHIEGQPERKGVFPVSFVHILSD
Sequence of Arf-GAP with SH3 domain, ANK repeat and PH domain-containing protein 1 (Mus musculus), Q9QWY8-1 P910A;P913A (Q9QWY8 whole entry P910A/P913A, the tested form may be a part): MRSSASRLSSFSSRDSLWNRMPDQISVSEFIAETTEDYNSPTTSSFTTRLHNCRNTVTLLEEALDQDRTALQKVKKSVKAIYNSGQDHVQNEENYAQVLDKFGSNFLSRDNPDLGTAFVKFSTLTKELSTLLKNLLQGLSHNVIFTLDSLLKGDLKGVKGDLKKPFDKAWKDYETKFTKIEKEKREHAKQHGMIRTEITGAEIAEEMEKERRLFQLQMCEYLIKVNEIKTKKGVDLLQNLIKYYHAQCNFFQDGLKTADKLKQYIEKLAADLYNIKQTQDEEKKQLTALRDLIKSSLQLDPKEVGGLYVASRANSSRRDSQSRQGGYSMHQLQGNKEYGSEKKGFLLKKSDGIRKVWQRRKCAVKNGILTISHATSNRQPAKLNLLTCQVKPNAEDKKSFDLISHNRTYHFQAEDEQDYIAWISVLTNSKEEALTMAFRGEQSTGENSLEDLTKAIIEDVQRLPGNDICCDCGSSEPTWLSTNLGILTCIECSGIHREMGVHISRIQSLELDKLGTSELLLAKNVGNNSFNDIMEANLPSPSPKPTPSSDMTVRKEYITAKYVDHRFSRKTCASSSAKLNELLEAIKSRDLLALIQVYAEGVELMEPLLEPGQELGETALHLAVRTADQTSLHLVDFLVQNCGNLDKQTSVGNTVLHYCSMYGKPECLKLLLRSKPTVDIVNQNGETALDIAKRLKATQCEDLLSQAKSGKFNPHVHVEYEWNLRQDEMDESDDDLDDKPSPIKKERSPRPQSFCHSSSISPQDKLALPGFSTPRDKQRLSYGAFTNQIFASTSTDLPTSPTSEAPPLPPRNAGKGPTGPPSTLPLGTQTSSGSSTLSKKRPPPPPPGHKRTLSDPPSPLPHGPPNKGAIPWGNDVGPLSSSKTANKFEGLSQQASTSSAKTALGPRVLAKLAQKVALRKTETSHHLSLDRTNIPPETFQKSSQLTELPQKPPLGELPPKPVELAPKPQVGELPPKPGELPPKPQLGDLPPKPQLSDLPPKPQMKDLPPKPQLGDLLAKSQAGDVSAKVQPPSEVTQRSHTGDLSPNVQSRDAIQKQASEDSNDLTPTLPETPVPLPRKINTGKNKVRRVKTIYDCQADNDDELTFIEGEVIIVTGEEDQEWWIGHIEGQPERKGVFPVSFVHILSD
Sequence of Arf-GAP with SH3 domain, ANK repeat and PH domain-containing protein 1 (Mus musculus), Q9QWY8-1 R811A;P910A;P913A (Q9QWY8 whole entry R811A/P910A/P913A, the tested form may be a part): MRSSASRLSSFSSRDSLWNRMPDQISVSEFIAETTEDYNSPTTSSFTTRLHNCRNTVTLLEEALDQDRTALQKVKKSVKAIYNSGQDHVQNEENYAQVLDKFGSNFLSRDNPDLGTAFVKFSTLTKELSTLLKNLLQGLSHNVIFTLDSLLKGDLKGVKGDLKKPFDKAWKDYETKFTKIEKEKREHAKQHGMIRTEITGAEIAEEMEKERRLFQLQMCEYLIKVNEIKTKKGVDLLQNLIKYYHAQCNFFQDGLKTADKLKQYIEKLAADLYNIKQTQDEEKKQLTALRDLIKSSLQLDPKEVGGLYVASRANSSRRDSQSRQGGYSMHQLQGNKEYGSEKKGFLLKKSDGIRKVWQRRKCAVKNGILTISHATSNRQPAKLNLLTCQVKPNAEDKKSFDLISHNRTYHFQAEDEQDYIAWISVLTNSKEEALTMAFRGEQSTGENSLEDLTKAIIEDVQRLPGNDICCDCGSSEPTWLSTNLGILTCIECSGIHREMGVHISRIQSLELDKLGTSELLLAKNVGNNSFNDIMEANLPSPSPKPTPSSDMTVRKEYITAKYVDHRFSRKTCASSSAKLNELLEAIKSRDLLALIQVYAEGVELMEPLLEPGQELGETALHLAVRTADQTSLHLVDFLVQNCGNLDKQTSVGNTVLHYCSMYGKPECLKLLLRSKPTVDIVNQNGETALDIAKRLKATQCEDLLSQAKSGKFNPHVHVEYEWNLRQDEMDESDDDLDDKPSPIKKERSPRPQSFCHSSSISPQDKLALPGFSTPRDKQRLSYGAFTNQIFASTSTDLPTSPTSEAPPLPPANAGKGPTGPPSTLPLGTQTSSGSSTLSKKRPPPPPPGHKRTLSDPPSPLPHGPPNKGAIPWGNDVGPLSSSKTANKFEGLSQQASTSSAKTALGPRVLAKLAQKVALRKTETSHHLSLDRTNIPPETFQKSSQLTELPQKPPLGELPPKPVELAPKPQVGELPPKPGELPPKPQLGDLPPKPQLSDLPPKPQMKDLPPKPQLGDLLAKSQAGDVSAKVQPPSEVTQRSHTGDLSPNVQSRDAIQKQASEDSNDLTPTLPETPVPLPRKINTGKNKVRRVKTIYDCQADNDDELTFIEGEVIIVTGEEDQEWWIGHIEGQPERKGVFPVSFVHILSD
Sequence of Arf-GAP with SH3 domain, ANK repeat and PH domain-containing protein 1 (Mus musculus), Q9QWY8-2 R811A;P849A;P853A (Q9QWY8 other isoform, or with tags, fused parts or gaps R811A;P849A;P853A): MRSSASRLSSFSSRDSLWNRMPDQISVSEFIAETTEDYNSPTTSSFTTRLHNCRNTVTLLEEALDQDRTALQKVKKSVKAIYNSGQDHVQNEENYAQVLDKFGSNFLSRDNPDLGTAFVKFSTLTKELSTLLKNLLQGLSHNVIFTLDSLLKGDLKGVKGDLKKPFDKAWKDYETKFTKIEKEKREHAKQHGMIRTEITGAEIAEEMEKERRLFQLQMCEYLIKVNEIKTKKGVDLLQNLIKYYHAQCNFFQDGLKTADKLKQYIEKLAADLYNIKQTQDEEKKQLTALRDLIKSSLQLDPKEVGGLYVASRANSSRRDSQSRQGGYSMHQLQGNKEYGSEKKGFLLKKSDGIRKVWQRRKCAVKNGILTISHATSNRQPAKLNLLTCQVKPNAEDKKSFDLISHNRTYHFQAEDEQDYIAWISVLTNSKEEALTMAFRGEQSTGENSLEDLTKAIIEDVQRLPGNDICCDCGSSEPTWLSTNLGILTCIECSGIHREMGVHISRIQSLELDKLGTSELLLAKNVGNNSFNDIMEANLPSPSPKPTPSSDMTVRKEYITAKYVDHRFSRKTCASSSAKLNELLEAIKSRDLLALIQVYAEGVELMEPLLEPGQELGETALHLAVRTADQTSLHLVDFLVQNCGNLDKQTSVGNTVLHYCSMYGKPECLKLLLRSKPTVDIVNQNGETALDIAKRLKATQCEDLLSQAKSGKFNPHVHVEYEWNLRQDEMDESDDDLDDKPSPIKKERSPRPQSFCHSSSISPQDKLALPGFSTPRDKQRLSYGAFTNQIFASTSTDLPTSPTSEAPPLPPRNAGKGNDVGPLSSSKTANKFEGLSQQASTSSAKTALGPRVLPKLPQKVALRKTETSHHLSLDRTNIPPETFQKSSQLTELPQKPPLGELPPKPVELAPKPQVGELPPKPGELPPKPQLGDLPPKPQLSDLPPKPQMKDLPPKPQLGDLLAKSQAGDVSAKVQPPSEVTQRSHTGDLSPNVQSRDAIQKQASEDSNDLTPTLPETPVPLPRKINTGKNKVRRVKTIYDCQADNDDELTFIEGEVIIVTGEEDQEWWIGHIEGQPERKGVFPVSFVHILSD

| effect of a mutation on the interaction [1] | effect of a mutation on the interaction [2] | effect of a mutation on the interaction [3] | Substance |
| --- | --- | --- | --- |
| disrupting interaction | – | – | Arf-GAP with SH3 domain, ANK repeat and PH domain-containing protein 1 (Mus musculus), Q9QWY8-2 R811A;P849A;P853A |
| – | decreasing interaction | decreasing interaction | Arf-GAP with SH3 domain, ANK repeat and PH domain-containing protein 1 (Mus musculus), Q9QWY8-1 R811A |
| – | decreasing interaction | decreasing interaction | Arf-GAP with SH3 domain, ANK repeat and PH domain-containing protein 1 (Mus musculus), Q9QWY8-1 P910A;P913A |
| – | – | disrupting interaction | Arf-GAP with SH3 domain, ANK repeat and PH domain-containing protein 1 (Mus musculus), Q9QWY8-1 R811A;P910A;P913A |

Source: IntAct's records for PubMed 9819391
